From article doi:10.1101/2023.04.25.538313v1 come the findings set out here.

Substrate in the data set: O=c1ccn([C@@H]2O[C@H](CO[P@@](=O)(O)O[P@@](=O)(O)O[C@H]3O[C@H](CO)[C@@H](O)[C@H](O)[C@H]3O)[C@@H](O)[C@H]2O)c(=O)[nH]1
The data set can be described thus: purified protein. As to conditions: His-tagged protein in proteoliposomes.

B1: CSLD3 (Arabidopsis thaliana) (protein)
chain: MASNNHFMNSRSNLSTNSDAAEAERHQQPVSNSVTFARRTPSGRYVNYSRDDLDSELGSVDLTGYSVHIPPTPDNQPMDPSISQKVEEQYVSNSLFTGGFNSVTRAHLMEKVIDTETSHPQMAGAKGSSCAVPGCDVKVMSDERGQDLLPCECDFKICRDCFMDAVKTGGMCPGCKEPYRNTDLADFADNNKQQRPMLPPPAGGSKMDRRLSLMKSTKSGLMRSQTGDFDHNRWLFETSGTYGFGNAFWTKDGNFGSDKDGNGHGMGPQDLMSRPWRPLTRKLQIPAAVISPYRLLILIRIVVLALFLMWRIKHKNPDAIWLWGMSVVCELWFALSWLLDQLPKLCPINRATDLNVLKEKFETPTPSNPTGKSDLPGLDMFVSTADPEKEPPLVTSNTILSILAADYPVEKLACYVSDDGGALLTFEAMAEAASFANMWVPFCRKHNIEPRNPDSYFSLKRDPYKNKVKADFVKDRRRVKREYDEFKVRINSLPDSIRRRSDAYHAREEIKAMKLQRQNRDEEIVEPVKIPKATWMADGTHWPGTWINSGPDHSRSDHAGIIQVMLKPPSDEPLHGVSEGFLDLTDVDIRLPLLVYVSREKRPGYDHNKKAGAMNALVRASAIMSNGPFILNLDCDHYIYNSQALREGMCFMMDRGGDRLCYVQFPQRFEGIDPSDRYANHNTVFFDVNMRALDGLMGPVYVGTGCLFRRIALYGFDPPRAKEHHPGFCSCCFSRKKKKSRVPEENRSLRMGGDSDDDEEMNLSLVPKKFGNSTFLIDSIPVAEFQGRPLADHPAVQNGRPPGALTIPRELLDASTVAEAIAVISCWYEDKTEWGSRIGWIYGSVTEDVVTGYRMHNRGWKSVYCVTKRDAFRGTAPINLTDRLHQVLRWATGSVEIFFSRNNAFFASPRMKILQRIAYLNVGIYPFTSFFLIVYCFLPALSLFSGQFIVQTLNVTFLVYLLIISITLCLLALLEIKWSGISLEEWWRNEQFWLIGGTSAHLAAVIQGLLKVVAGIEISFTLTSKSGGEDVDDEFADLYIVKWTSLMIPPITIMMVNLIAIAVGFSRTIYSVIPQWSKLIGGVFFSFWVLAHLYPFAKGLMGRRGRTPTIVYVWSGLVAITISLLWVAINPPAGSTQIGGSFTFP
For the protein B1, the Km (usually the substrate concentration at which the rate is half of its maximum) came out at 62 µM.
